# Laboratory results reported in publication PMC11082164.
# Biological target: recombinant human full-length BIN1 isoform 8 (human)
"relative membrane binding of Alexa488-ezrin-T567D on supported lipid bilayers with 5% PI(4,5)P2 in the presence of 0.1 µM BIN1 iso8, normalized to ezrin-T567D without BIN1 (confocal intensity) [fold]","relative membrane binding of Alexa488-ezrin on supported lipid bilayers with 5% PI(4,5)P2 in the presence of 0.1 µM BIN1 iso8, normalized to ezrin without BIN1 (confocal intensity) [fold]",Substance
1.5,,recombinant ezrin T567D (from UniProt P15311 1-586) (natural protein)
,2.5,recombinant ezrin wild-type (from UniProt P15311 1-586) (natural protein)
